Experimental data as given in doi:10.1101/705459 (bioRxiv, 2019).

T1: CMG2-GST-biotin (human CMG2 vWA domain 40-217, [change], [change], GST fusion, biotin-labelled) (human, UniProt P58335 40-217)
T1 chain: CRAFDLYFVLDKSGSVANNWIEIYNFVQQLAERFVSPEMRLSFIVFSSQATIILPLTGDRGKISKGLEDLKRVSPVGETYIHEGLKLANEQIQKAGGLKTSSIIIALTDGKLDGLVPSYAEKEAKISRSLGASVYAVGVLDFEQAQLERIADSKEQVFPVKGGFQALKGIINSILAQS

T2: CMG2-488 (human CMG2 vWA domain 40-217, [change], [change], AlexaFluor 488) (human, UniProt P58335 40-217)
T2 chain: T1 chain

B1: Peptide S16 (canstatin-derived 15-mer) (peptide)
peptide: PAIAIAVHSQDVSIP
B2: CMG2-biotin (human CMG2 vWA domain 40-217, [change], [change], biotin-labelled) (domain or fragment)
chain: T1 chain
B3: Peptide U12 (canstatin-derived 15-mer) (peptide)
peptide: VSIGYLLVKHSQTDQ

What was measured:
[1] = molecular target: T1, CMG2-GST-biotin (human CMG2 vWA domain …); assay: BLI
[2] = molecular target: T2, CMG2-488 (human CMG2 vWA domain 40-217, …); assay: FRET or BRET
[3] = molecular target: B1; assay: peptide or protein array
[4] = molecular target: B3; assay: peptide or protein array

Binder | Kd [1] [nM] | koff [1] [s⁻¹] | kon [1] [M⁻¹ s⁻¹] | IC50 [2] [nM] | Kd [2] [nM] | binding result [3] | binding result [4]
B1 | 400 | ~0.0001 | ~200 | 2700 | 100 ± 55 |  | 
B2 |  |  |  |  |  | binds | binds
B3 | 80000 |  |  | 35000 |  |  | 
